# B1: mRFP-DRG2 (human DRG2) (natural protein)
# chain: MGILEKISEIEKEIARTQKNKATEYHLGLLKAKLAKYRAQLLEPSKSASSKGEGFDVMKSGDARVALIGFPSVGKSTFLSLMTSTASEAASYEFTTLTCIPGVIEYKGANIQLLDLPGIIEGAAQGKGRGRQVIAVARTADVIIMMLDATKGEVQRSLLEKELESVGIRLNKHKPNIYFKPKKGGGISFNSTVTLTQCSEKLVQLILHEYKIFNAEVLFREDCSPDEFIDVIVGNRVYMPCLYVYNKIDQISMEEVDRLARKPNSVVISCGMKLNLDYLLEMLWEYLALTCIYTKKRGQRPDFTDAIILRKGASVEHVCHRIHRSLASQFKYALVWGTSTKYSPQRVGLTHTMEHEDVIQIVKK
# Molecular target: EGFP-Rab5 (wild type) (UniProt P20339)
# Test: FRET or BRET
# Sequence of UniProt P20339 (P20339 whole entry): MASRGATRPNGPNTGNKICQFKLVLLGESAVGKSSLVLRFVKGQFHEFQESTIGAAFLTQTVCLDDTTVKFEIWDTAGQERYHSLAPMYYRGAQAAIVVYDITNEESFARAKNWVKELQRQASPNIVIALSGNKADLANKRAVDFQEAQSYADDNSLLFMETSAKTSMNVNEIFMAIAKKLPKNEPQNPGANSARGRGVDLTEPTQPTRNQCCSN
binder,measurement,value
B1,FRET efficiency,10%

# From paper PMC4713135
